# From publication PMC9197078, “The small nonstructural protein NP1 of human bocavirus 1 directly interacts with Ku70 and RPA70 and facilitates viral DNA replication” (PLoS Pathogens, 2022)
# B1: MBP-Ku70-β-barrel^His (aa266-439) (domain or fragment, UniProt P12956 266-439, looked up)
# chain: DIVISVGIYNLVQKALKPPPIKLYRETNEPVKTKTRTFNTSTGGLLLPSDTKRSQIYGSRQIILEKEETEELKRFDDPGLMLMGFKPLVLLKKHHYLRPSLFVYPEESLVIGSSTLFSALLIKCLEKEVAALCRYTPRRNIPPYFVALVPQEEELDDQKIQVTPPGFQLVFLPF
# notes: also called MBP-β-barrel^His; Ku70 β-barrel domain; source: E. coli BL21/DE3 pLysS, purified
# B2: glutathione S-transferase (GST)-tagged HBoV1 NP1 (GST-NP1) (natural protein)
# chain: MSSGNMKDKHRSYKRKGSPERGERKRHWQTTHHRSRSRSPIRHSGERGSGSYHQEHPISHLSSCTASKTSDQVMKTRESTSGKKDNRTNPYTVFSQHRASNPEAPGWCGFYWHSTRIARDGTNSIFNEMKQQFQQLQIDNKIGWDNTRELLFNQKKTLDQKYRNMFWHFRNNSDCERCNYWDDVYRRHLANVSSQTEADEITDEEMLSAAESMEADASN
# notes: also called pGST-NP1; source: E. coli BL21/DE3 pLysS, purified
# Legend:
# Experiment in all cases: BLI; BLItz; His-tagged protein at different concentrations mounted on Ni-NTA biosensors, dipped into 4 μM GST-NP1 or control GST^Flag; Kinetic buffer 50 mM Tris-HCl pH 7.4, 150 mM NaCl
# Settings in all cases: both partners purified
# [1] = target: B2
# RPA70^His = target: T1, RPA70^His (UniProt P27694 1-616)
# T1 construct: source: E. coli BL21/DE3 pLysS, purified
# T1 sequence (P27694 whole entry): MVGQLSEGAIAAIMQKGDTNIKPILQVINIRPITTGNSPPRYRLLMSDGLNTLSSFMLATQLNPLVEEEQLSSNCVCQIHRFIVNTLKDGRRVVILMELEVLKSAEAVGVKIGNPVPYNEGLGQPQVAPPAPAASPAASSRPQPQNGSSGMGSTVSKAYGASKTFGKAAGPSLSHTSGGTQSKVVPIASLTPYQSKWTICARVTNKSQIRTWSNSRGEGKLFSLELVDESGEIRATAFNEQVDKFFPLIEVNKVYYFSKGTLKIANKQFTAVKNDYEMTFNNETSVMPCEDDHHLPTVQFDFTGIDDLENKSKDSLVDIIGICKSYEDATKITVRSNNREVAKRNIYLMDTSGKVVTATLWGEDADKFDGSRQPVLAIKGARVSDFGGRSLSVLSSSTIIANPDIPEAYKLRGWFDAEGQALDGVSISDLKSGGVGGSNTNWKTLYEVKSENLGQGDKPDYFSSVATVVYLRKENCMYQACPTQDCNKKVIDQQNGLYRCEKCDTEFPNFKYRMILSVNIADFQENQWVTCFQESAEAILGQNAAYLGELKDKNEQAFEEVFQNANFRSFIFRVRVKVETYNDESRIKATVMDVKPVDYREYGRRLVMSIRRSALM
# RPA70-AB^His (aa181-422) = target: T2, RPA70-AB^His (aa181-422) (UniProt P27694 181-422)
# T2 construct: also called middle AB domain; source: E. coli BL21/DE3 pLysS, purified
# T2 sequence (P27694 181-422): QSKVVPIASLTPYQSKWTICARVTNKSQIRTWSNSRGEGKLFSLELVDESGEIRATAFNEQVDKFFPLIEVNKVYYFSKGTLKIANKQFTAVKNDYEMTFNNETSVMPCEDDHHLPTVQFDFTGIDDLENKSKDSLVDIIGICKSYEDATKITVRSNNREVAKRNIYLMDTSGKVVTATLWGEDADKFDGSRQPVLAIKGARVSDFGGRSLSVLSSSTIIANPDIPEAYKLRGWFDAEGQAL
# [2] = target: T3, hexahistidine (His)-tagged Ku70 (Ku70^His) (UniProt P12956 1-609)
# T3 construct: also called full length Ku70; Ku70 monomer; source: E. coli BL21/DE3 pLysS, purified
# T3 sequence (P12956 whole entry): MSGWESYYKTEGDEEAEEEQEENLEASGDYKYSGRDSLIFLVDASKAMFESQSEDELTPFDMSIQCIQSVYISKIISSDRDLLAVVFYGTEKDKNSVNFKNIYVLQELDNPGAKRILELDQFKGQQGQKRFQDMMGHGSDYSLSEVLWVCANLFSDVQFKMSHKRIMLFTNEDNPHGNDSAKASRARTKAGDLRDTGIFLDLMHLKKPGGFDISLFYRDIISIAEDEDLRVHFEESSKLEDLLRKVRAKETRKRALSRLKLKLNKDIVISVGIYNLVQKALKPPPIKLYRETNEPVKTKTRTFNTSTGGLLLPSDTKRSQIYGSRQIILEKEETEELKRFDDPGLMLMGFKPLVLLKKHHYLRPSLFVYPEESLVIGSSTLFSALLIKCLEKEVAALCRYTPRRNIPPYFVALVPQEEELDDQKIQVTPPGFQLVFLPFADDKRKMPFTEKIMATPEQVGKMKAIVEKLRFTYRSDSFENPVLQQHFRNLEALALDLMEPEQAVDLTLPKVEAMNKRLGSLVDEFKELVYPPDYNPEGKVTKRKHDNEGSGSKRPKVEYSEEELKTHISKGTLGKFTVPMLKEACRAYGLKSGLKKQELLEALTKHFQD
Binder,Kd [1] [nM],Kd (RPA70^His) [nM],Kd (RPA70-AB^His (aa181-422)) [nM],Kd [2] [nM]
B1,722,,,
B2,,122,526,95
